Molecular target: Q13093
Assay: estimated from dilution inactivation (residual CAM activity against enzyme concentration), self-association

B1: recombinant lipoprotein-associated phospholipase A2 (rLp-PLA2) expressed in HEK293 cells (protein)
chain: FDWQYINPVAHMKSSAWVNKIQVLMAAASFGQTKIPRGNGPYSVGCTDLMFDHTNKGTFLRLYYPSQDNDRLDTLWIPNKEYFWGLSKFLGTHWLMGNILRLLFGSMTTPANWNSPLRPGEKYPLVVFSHGLGAFRTLYSAIGIDLASHGFIVAAVEHRDRSASATYYFKDQSAAEIGDKSWLYLRTLKQEEETHIRNEQVRQRAKECSQALSLILDIDHGKPVKNALDLKFDMEQLKDSIDREKIAVIGHSFGGATVIQTLSEDQRFRCGIALDAWMFPLGDEVYSRIPQPLFFINSEYFQYPANIIKMKKCYSPDKERKMITIRGSVHQNFADFTFATGKIIGHMLKLKGDIDSNVAIDLSNKASLAFLQKHLGLHKDFDQWDCLIEGDDENLIPGTNINTTNQHIMLQNSSGIEKYN
- concentration at which roughly half is monomer and half aggregate or oligomer: At the concentration at 2.5 µg/ml or 53 nM, roughly half of rLp-PLA2 is in monomer and half forms the aggregate or oligomer as estimated

Source: patent publication US20160334404
